Assay: soluble fraction after stress (log2 fold change); higher = more stays soluble; pooled small domains, quantitative proteomics
Conditions: stress: 75 degC
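Also: 20 min heating vs room temperature control held 20 min.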

HMEKKSKLVLAVLQGSDSDNTIRNLNERGFMVTVLSSTGGFLKKKSTTVMIGVEEDRLEEALDVLQKYAG
soluble fraction (log2): -0.549

HMTKRTVKSVARKIADFNRERHRMPTYEEMLTLLAVRSKSVVHFWMNKLLQEGILEKDESGHLTFV
soluble fraction (log2): -0.179

HMEQVQQIPIEELFPFKEHPFKVLDDEAMQRTVESVAQYGVLAPLIARPRPEGGYEIISGHRRQHAAELYR
soluble fraction (log2): -0.0469

HMLTIQNYFNQVKNIDWEQVPAALSKGHQLVEGASQNNWSAYHSNANIQRVVEAYFQKLNDYLEKN
soluble fraction (log2): -0.0425

HMFEDYNELDEYLETRFIPTYVLLKQRKNANGEIDHFPSIRLQHIMALKLSEAELEHVMNYLKEKNIRVG
soluble fraction (log2): -1.68

HMRKNVAGITPNVYGMGLKDAVYLLENAGYRVKVNGRGNVVRQSINSGTRIIKGQLIILDLD
soluble fraction (log2): -3.62

HMTNSAGIERFLASGAIDGVGPAMARRIVEHFGTEALRIIESVPHRLREISGIGPKTAEKIASSYMRQ
soluble fraction (log2): -1.15

HMAFDDAHYKDMITSYLKKFKKGNRSEIENLIIPKLSEVLVEKQKKDKVKNLLQALRKDNQIRLKGKYWYL
soluble fraction (log2): 0.422

HMGKTKFTEMSALELKAYAELNNNSMHWVYRMLYIGGGDVGFRKGMKELGYSGKFIWMTLERLKKS
soluble fraction (log2): -1.24

HMISFLNFVRKEIDASQLKDSTKQNHLTTIGLLQSFKPSIEFKDLNYNFITSFEKYLYDAGYQM
soluble fraction (log2): 0.0114

HMRSFADEGTVEEWIKQAIRENEAAVADYRKGKETAVKFLMGQVMRLSKGEANPADLEDKIKAKLD
soluble fraction (log2): 0.0142

HMVAQQINDFRSERDASTGTLKRPLFDTLRDVISSRAQAYVSATGKPVTVEDLDRIYQAVEAEAKQAL
soluble fraction (log2): 0.0174

HMQGVNLTETEKNFIAQVLSPLLKQGQSLYQIRTNHPEIKLSVKTLYTYIESGIFKESGINNFSLRRQ
soluble fraction (log2): -0.122

HMTTIAQMTGPQRAAVILLVLGEDHGRTIWQEFDDDEIRIITRAMAELGTVDADEVERLMLDFVGKLSS
soluble fraction (log2): -2.67

HMLPIGSSREQVISSLNKMHQDYKEEGNFIYAGYFKQGLPLVPSPRISIALQFNETAHLEKIDATLNYV
soluble fraction (log2): -0.343

HMAAHWANFLEALRAGRARRVLVARGVEGWLLKELERLGAPYTLVPRIELDTLLRTTHHQGIAAEVE
soluble fraction (log2): -1.46

HMINIGANIRAIRKQKNIKQVDLVRLLQLEGVEITRETLVKIESGVQHIKASQLRGIRDALGTTYDELL
soluble fraction (log2): -2.88

HMTTPAAISKIKKLEEAKRLLATTTYSMKEIAVKLKYKSHTHFGMDFKNNTGMTPAEYRKAIKAKREKQMN
soluble fraction (log2): -1.96

HMEFVEERRNRMLDYIGENKRADVPELARHFDVTEVTIRRDLLILEQDGKLIRTHGGAMINR
soluble fraction (log2): -0.536

HMDIFLPDVKGYDLIPSFRRHLPDIDVIAMTGYNTRALESAVRQQDVLFYMIKPFEASQLKEILEHLVK
soluble fraction (log2): -0.16

HMFPDRLRELRKGRNITLETLAEEMNKHLEPGQKPNTAAQIGNWERGDRSPSYIEVRKLADFFNVSMDFL
soluble fraction (log2): -0.586

HMSVPEDLYFRELEVEGNKVRISGIASTNNRVSALMRNFDQSEWFRDPSLIKVESKSPGVNEFEIVMTRI
soluble fraction (log2): 0.125

HMTVSLTDVPFVPEILDRLERPELDVLLAILNGATNTFDLAAKTGRSRDELDEVLDRLTTLGLIER
soluble fraction (log2): -0.532

HMPGEIKKIPINSISYQDLKQHPYFDAYLAKQVIKYRETKGRIENIEQFREATRAYQSLIEKVTPYLDFE
soluble fraction (log2): -0.302

HMGDSVLNDKLNTLAGLDEERFKWVLASLNPNNSYSTHSDKMSALMWLVSYFNDEADLKETVPPLPI
soluble fraction (log2): -0.189

HMLPTVSITGHIFIRSGSPLNRIFVGEKIYHVGDHIDRDWVIESIGIDTLTIRSGTLSTQLPL
soluble fraction (log2): -2.99

HMRAVPTKLAPFVEVLKAMLEADGHRPKAQRRTAKALHLELISRGYAGGYTRLTDYIRDWRQQQG
soluble fraction (log2): -2.36

HMSVTDDQLRVFTNKSGTKIKAKIVEVSDDKVKLIRDDNKKFIVPINSLSEEDQDYLRDWVSNEAVEP
soluble fraction (log2): -0.118

HMQGQADFTQGIANFTQYPVGSRITVFTLEGRRVAVVEIGKDGTAQLDMRNKPAGVYIVNTGKQSFKWLK
soluble fraction (log2): -2.65

HMDEEQIASRRALIMRAAREIMETQGMEALSIRKIAAMIQQTPGIIYHYFSGKEELMLAVVQEGYH
soluble fraction (log2): -0.00144

HMTIGKIVNIIEGSYANVRSAPDQNSEPIGRAYPGDAFLVDPLGSSGDWVKVTYEGQSGFIFQAYISV
soluble fraction (log2): -3.94

HMNVNALIGQEGIVIKEINSGSNKIGQVKISGDTWSAVTTNDFTNAIPVGSNVKILKIDGVNLIVEPVY
soluble fraction (log2): -0.255

HMHDPLATLTPREHEVMSLMAEGRTNAAIAQALVIGTGAVEKNVTSIFQKLGLDDSGTDHRRVLAVLAWLQ
soluble fraction (log2): -2.13

HMTNVFSIIGKKALVIKDIDPIHSSGQIKLNGEVWSAETENDEIIKEGSEVEVLKINGVKAIVKLV
soluble fraction (log2): -0.664

HMDAHYMEMKGKTGTAFTMLRPAGKIDIEGQIFDAVAEAGFIEKGEAIRVVKYENAQLIVRK
soluble fraction (log2): -0.446

HMNDLIFSTLAEYDRDTITEIISVVDNTRGIGYEVELVRKDLIAMAAQAEARRDYLPSVIGDVEVFKRNLL
soluble fraction (log2): 0.354

HMKGKDLQDAVVTVVGGAENWNAIRAWAQASASDSEKREINAAFQSGKLMATMMAERLALAYQQSG
soluble fraction (log2): 0.182

HMEPPAPAPDIPYPSRVTVRREVDGWPHYYGTWTRTPPVLGYEGIWLVGVSLDGKVQFVPVDDVTIA
soluble fraction (log2): -1.17

HMHPMVEAYLADLDRALSGSDPREHAETMSAVREHLADAIAPDATAEQVRHALDELGPVEAIAAG
soluble fraction (log2): 0.0321

HMQKPDIEVDFAEGDMVVVTGGAWKDTAGVITGINMQKQTVTINVELFGRETPVEISFTEIKKA
soluble fraction (log2): -0.117

HMGPVDFYQMFISELQHLAEKPVTVDALIESTQLHKSQLTEWLKRAVDDGVVKKLNRPARFQVKNK
soluble fraction (log2): 0.0567

HMNLGDLYVIMEIAGQRDDVSARLMNREGQTFLVKTGTKLKSGDVVKEITPTYIKTDHDGEEAFLYF
soluble fraction (log2): -0.78

HMKTDLQIQQDVMAELKWEPKVNAAHIGVEVKHGVVTLSGHVDSFAEKWNAEQAAKRVAGVKFIAIELDV
soluble fraction (log2): -2.1

HMYFDDEELDTYKGRASNAYSPDETAQFEEVMTTMRPDEVAAWLRSLQLRGINLPDELKDEAIMLVE
soluble fraction (log2): -0.0968

HMGGNKILTWKTDAATTRNQVPINERKEGLEISYKNEERNWVAEKYVGTSFSDDKWGVDYNWNQD
soluble fraction (log2): 0.951

HMEIFSIEPDSYLGSGEEIASYYREGVTVIVNMAKLSDAESLRMVDFMSGLKLALLGNIKRITKHVYLLTP
soluble fraction (log2): -0.0777

HMNSTGVYQRPDGFWEYRFTLSINGKKLPRRKSTDLMGNKLKTKREAIKAREEAIIALRTEKTI
soluble fraction (log2): -1.42

HMKIDLPIWLNKKAWEAWVEYKKERKQKLTPSIIKFQLRILEKNKEDHPEIIRNSITNGWTGLFPLK
soluble fraction (log2): -1.81

HMSTRKAFVNGDGVRLRSGPGTNHSIRASLTKGQTVFVTGTKDGWASVSVQGGASGWVSADLLKYE
soluble fraction (log2): 0.59

HMEPMTDQQILEGFAEFKRQNPDLMNRPATQAIVNLTLPGGTPISFRSGAGAAALNQYLESIGMRAGP
soluble fraction (log2): 0.0601

HMRPQIAIDAIQALSLIMRTENKEDPTYLESRRVVSDAVAKRLSLNPTDLNRAWSRAPRDHQIAVLSALTQ
soluble fraction (log2): -1.34

HMQNGNLVDVYLNWRGKYYAIKMFFPNSKMPRRSDVQDQIVKVYPDARVQSFQVSKYVPGQPFL
soluble fraction (log2): -2.62

HMDANAYTYKVSEDTDTRTGEKIFLVKVAEKLSRKEYIVVNNYMKSLGSYYSKFKHAFLFKENPTEKL
soluble fraction (log2): -0.55

HMHPRDREENKYLLLRGERIYEESIGEKRLYVEAALHKYEKALSSYDTGLIDEAKEEFKKFLEEIEEA
soluble fraction (log2): -0.271

HMSPLALLTPRELDILRAMTAGASNKEIARQFAIAETTVKIHVQHILRKLDVTTRVHAAVMASESGL
soluble fraction (log2): -3.05

HMKVSNWYFNGAPSATTPPTSQWTTEKDKKAHIGDTFTSLDKSPSPNAGKSWRYTPSYTWEEIV
soluble fraction (log2): 0.655

HMNIILFLDELHRLLSDLPPEERNQAIKYYEDYFEDAGPENEQAILKELGSPQELANQIKATT
soluble fraction (log2): -0.94

HMLRIIDYNRVVKDLNGLTPEQLLEKLAESFTVEDKGTEEYRPTELHNFSMYLGGHWYSLTAKPGTYDDND
soluble fraction (log2): -1.2

HMALSVRNRMSDLLRMLGDGEFHRFENLFSLEEGRHGIVVTFLAMLELAKEQLVEISQGESLAPIYLKSLA
soluble fraction (log2): -1.05

HMNKPTFNIFNNRLTFPFKGDITIYSLDGKRVFSAYNESSVNLSFLNRGSYISEFNNSRSVLIL
soluble fraction (log2): -1.34

HMAAEPDQQLIKPASDPVLRTMKIEELMKMSEQVKIQMSKAAKNFDYLEAARLRDEHFALENLIKLRS
soluble fraction (log2): -0.106

HMNSEAVQNVIDKISALPDDITAKAKSQIEEARAAYEALSDSEKARVTNYSTLVAAEKKLASVVKD
soluble fraction (log2): 0.558

HMGARWPIQDRPLTATEAAAVRRMYAGGLPHGRSKNSVITEVWGDLSNKPKRLDWLNQALEGGA
soluble fraction (log2): 0.0155

HMAKPVNISAEPYHYDPTRFRVTFELPRLSDQPRKRIRKVAPAGLDREQALAWAKRLEREVLHELLR
soluble fraction (log2): -1.08

HMENTIPSVIGRTLSDGVFLLESYGYVKGNVSEEFSEMPIGVIIRQFPGAGSAAEAGTRVDLVVSKGEEIV
soluble fraction (log2): 0.124

HMRRTEKEIEQDVMRAIATIISEKGISSVTIKEVSNLSKTDVIVLERRFKNDEGLIKAYTSQ
soluble fraction (log2): -1

HMTGQEGLIGAHGVALTRLSNEEGEVKVQGEIWQARSDQEVAKGASIEVVHVDGLVLTVRPQH
soluble fraction (log2): -0.0319

HMFGDQMQSYLSRLSQIDVDIIALKYGDNFTYREIGLILEMSEDSVRQRAVRARKKLETMIQKG
soluble fraction (log2): -3.31

HMVTVQEGETLSAIAARSGVSVKDLVRANEIRNPDSIQEGQVLFVP
soluble fraction (log2): 0.115

HMLSEKELLELLNRAKSNYNGITKKGIEAIALKYQGYSNVEIANLYHVKANHISAWISRARSRLKADY
soluble fraction (log2): 0.07

HMKSAIGEEKAENFAFADLGMDPLSAEGVRTEFGFEQGQFVYKVYFTADGTEYEYWIKASDGSVVKKGMDL
soluble fraction (log2): -1.53

HMNQDQDLSRIKGIGPEMVDRLHAQGVETLEQIAAMQMEQLKKLDQQISGNGKAVREQWAEQAKQLLTT
soluble fraction (log2): 0.099

HMYVADVVGMGIKDALYILENQGLRVVFTGKGVVKNQSIAVGEKIIKGEKIVLML
soluble fraction (log2): -1.88

HMEFPYISGVDVGTISNKEFARFETTKASDIVIALDKSGIPFSARFGDSEIVLTYDGSYKEEVEEIIAKV
soluble fraction (log2): 0.172

HMSQESIMPNLVGSTEDEAKAIAVEYGFQLNVISRVNNSQYPAGVIIDQNVDEGVRIKAGYPVGVTIS
soluble fraction (log2): -0.237

HMVVSDSAEIDKIVQDVIAANPKAIEDFKSGKTNVTGWLMGQVMKLSHGKANPKQATEILNKYLSK
soluble fraction (log2): 0.513

HMLSDADLAAFREVFDLVDKDKSGAIEMEEVEELTKLLGLDLTRDEVELLVREIDKDGNGEVDFEEFLLVM
soluble fraction (log2): 0.00598

Reference: the domain aggregation screens of Martell et al. (2025)
